Test results from the supplement of paper PMC9112550, “Optimization of the antimicrobial peptide Bac7 by deep mutational scanning” (BMC Biology, 2022).

The sequences below were run on Escherichia coli TOP10 (assay: shrunken log2 fold change of peptide-encoding DNA abundance (4.5 h post-induction vs induction); higher = less antimicrobial activity (less host growth inhibition)). Settings: time post-induction: 4.5 h; library: site-saturation at positions 5, 18, 19, 20.
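Further: peptides expressed intracellularly from a pBAD plasmid library in pooled LB shake-flask culture, induced with 0.3% L-arabinose, DNA abundance read by NGS, three biological replicates, DESeq2 with apeglm shrinkage.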

Q: How did the “shrunken log2 fold change” value turn out when RRIRQRPPRLPRPRPRPQMHPRP was run?
A: -0.168

Q: With RRIRWRPPRLPRPRPRPGHDPRP as the sequence, how does the “shrunken log2 fold change” value read?
A: 0.043

Q: With RRIRMRPPRLPRPRPRPDIDPRP as the sequence, how does the “shrunken log2 fold change” value read?
A: 0.467

Q: RRIRIRPPRLPRPRPRPGQAPRP was tested. Which “shrunken log2 fold change” value did it give?
A: -0.0154

Q: Which “shrunken log2 fold change” value does the source give for RRIRQRPPRLPRPRPRPPHQPRP here?
A: 0.363

Q: RRIRERPPRLPRPRPRPRHEPRP was tested. Which “shrunken log2 fold change” value did it give?
A: -0.304

Q: RRIRSRPPRLPRPRPRPHMLPRP was tested. Which “shrunken log2 fold change” value did it give?
A: -0.104

Q: With RRIRGRPPRLPRPRPRPDDGPRP as the sequence, how does the “shrunken log2 fold change” value read?
A: -0.0284

Q: For RRIRTRPPRLPRPRPRPNRHPRP, which “shrunken log2 fold change” value is on record?
A: -0.36

Q: With RRIRMRPPRLPRPRPRPTMRPRP as the sequence, how does the “shrunken log2 fold change” value read?
A: 1.4

Q: RRIRARPPRLPRPRPRPIDYPRP was tested. Which “shrunken log2 fold change” value did it give?
A: -0.228

Q: With RRIRMRPPRLPRPRPRPDAGPRP as the sequence, how does the “shrunken log2 fold change” value read?
A: 1.12

Q: RRIRMRPPRLPRPRPRPSYYPRP was tested. Which “shrunken log2 fold change” value did it give?
A: -0.531

Q: With RRIRDRPPRLPRPRPRPQQEPRP as the sequence, how does the “shrunken log2 fold change” value read?
A: 0.00606

Q: RRIRFRPPRLPRPRPRPCIMPRP was tested. Which “shrunken log2 fold change” value did it give?
A: -0.953

Q: For RRIRSRPPRLPRPRPRPTDSPRP, which “shrunken log2 fold change” value is on record?
A: -0.0593

Q: RRIRHRPPRLPRPRPRPDRNPRP was tested. Which “shrunken log2 fold change” value did it give?
A: -0.0482

Q: With RRIRFRPPRLPRPRPRPFGYPRP as the sequence, how does the “shrunken log2 fold change” value read?
A: -0.113

Q: How did the “shrunken log2 fold change” value turn out when RRIRDRPPRLPRPRPRPFYYPRP was run?
A: -0.899

Q: How did the “shrunken log2 fold change” value turn out when RRIRIRPPRLPRPRPRPVNIPRP was run?
A: -0.17

Q: How did the “shrunken log2 fold change” value turn out when RRIRCRPPRLPRPRPRPQMEPRP was run?
A: 0.04

Q: How did the “shrunken log2 fold change” value turn out when RRIRMRPPRLPRPRPRPYLDPRP was run?
A: 0.107

Q: RRIRYRPPRLPRPRPRPAILPRP was tested. Which “shrunken log2 fold change” value did it give?
A: -0.402

Q: For RRIRCRPPRLPRPRPRPMTSPRP, which “shrunken log2 fold change” value is on record?
A: -0.0603

Q: For RRIRKRPPRLPRPRPRPVTCPRP, which “shrunken log2 fold change” value is on record?
A: -0.0146

Q: Which “shrunken log2 fold change” value does the source give for RRIRNRPPRLPRPRPRPHPQPRP here?
A: -0.106

Q: With RRIRQRPPRLPRPRPRPQVRPRP as the sequence, how does the “shrunken log2 fold change” value read?
A: -0.276

Q: Which “shrunken log2 fold change” value does the source give for RRIRDRPPRLPRPRPRPQKFPRP here?
A: -0.0467

Q: For RRIRARPPRLPRPRPRPMWIPRP, which “shrunken log2 fold change” value is on record?
A: 0.249

Q: For RRIRHRPPRLPRPRPRPWCWPRP, which “shrunken log2 fold change” value is on record?
A: 0.0593

Q: RRIRCRPPRLPRPRPRPPFLPRP was tested. Which “shrunken log2 fold change” value did it give?
A: -0.0759

Q: RRIRCRPPRLPRPRPRPRKRPRP was tested. Which “shrunken log2 fold change” value did it give?
A: 0.456

Q: For RRIRSRPPRLPRPRPRPCGAPRP, which “shrunken log2 fold change” value is on record?
A: 0.327

Q: For RRIRWRPPRLPRPRPRPRYQPRP, which “shrunken log2 fold change” value is on record?
A: -0.188

Q: Which “shrunken log2 fold change” value does the source give for RRIRYRPPRLPRPRPRPYLHPRP here?
A: -0.0309

Q: RRIRPRPPRLPRPRPRPMPAPRP was tested. Which “shrunken log2 fold change” value did it give?
A: 0.0935

Q: With RRIRDRPPRLPRPRPRPKRMPRP as the sequence, how does the “shrunken log2 fold change” value read?
A: 0.0969

Q: For RRIRQRPPRLPRPRPRPGYGPRP, which “shrunken log2 fold change” value is on record?
A: -0.131

Q: Which “shrunken log2 fold change” value does the source give for RRIRVRPPRLPRPRPRPQENPRP here?
A: -0.119

Q: With RRIRNRPPRLPRPRPRPHTFPRP as the sequence, how does the “shrunken log2 fold change” value read?
A: -0.0139

Q: RRIRPRPPRLPRPRPRPNCNPRP was tested. Which “shrunken log2 fold change” value did it give?
A: -0.518

Q: Which “shrunken log2 fold change” value does the source give for RRIRQRPPRLPRPRPRPASHPRP here?
A: 0.189

Q: With RRIRSRPPRLPRPRPRPNSQPRP as the sequence, how does the “shrunken log2 fold change” value read?
A: -0.118

Q: With RRIRIRPPRLPRPRPRPIWTPRP as the sequence, how does the “shrunken log2 fold change” value read?
A: -0.0318

Q: RRIRCRPPRLPRPRPRPLYVPRP was tested. Which “shrunken log2 fold change” value did it give?
A: -0.833

Q: For RRIRVRPPRLPRPRPRPQKVPRP, which “shrunken log2 fold change” value is on record?
A: -0.355

Q: For RRIRMRPPRLPRPRPRPHAEPRP, which “shrunken log2 fold change” value is on record?
A: 2.8

Q: RRIRIRPPRLPRPRPRPLIFPRP was tested. Which “shrunken log2 fold change” value did it give?
A: -0.562

Q: RRIRPRPPRLPRPRPRPGQMPRP was tested. Which “shrunken log2 fold change” value did it give?
A: -0.0125

Q: With RRIRWRPPRLPRPRPRPAEDPRP as the sequence, how does the “shrunken log2 fold change” value read?
A: 0.711

Q: Which “shrunken log2 fold change” value does the source give for RRIRIRPPRLPRPRPRPSDAPRP here?
A: -0.0664

Q: With RRIRHRPPRLPRPRPRPTDIPRP as the sequence, how does the “shrunken log2 fold change” value read?
A: -0.668

Q: RRIRGRPPRLPRPRPRPKSDPRP was tested. Which “shrunken log2 fold change” value did it give?
A: 0.584

Q: With RRIRFRPPRLPRPRPRPTDAPRP as the sequence, how does the “shrunken log2 fold change” value read?
A: 0.00734

Q: Which “shrunken log2 fold change” value does the source give for RRIRFRPPRLPRPRPRPQEYPRP here?
A: -0.541

Q: RRIRMRPPRLPRPRPRPDQCPRP was tested. Which “shrunken log2 fold change” value did it give?
A: 0.0192

Q: Which “shrunken log2 fold change” value does the source give for RRIRCRPPRLPRPRPRPPDMPRP here?
A: -0.000808

Q: For RRIRERPPRLPRPRPRPSNFPRP, which “shrunken log2 fold change” value is on record?
A: -0.909

Q: With RRIRNRPPRLPRPRPRPCCDPRP as the sequence, how does the “shrunken log2 fold change” value read?
A: -0.0282

Q: With RRIRGRPPRLPRPRPRPMGRPRP as the sequence, how does the “shrunken log2 fold change” value read?
A: 0.28

Q: Which “shrunken log2 fold change” value does the source give for RRIRNRPPRLPRPRPRPIYIPRP here?
A: 0.0152

Q: RRIRFRPPRLPRPRPRPEVGPRP was tested. Which “shrunken log2 fold change” value did it give?
A: 0.296

Q: RRIRLRPPRLPRPRPRPEEIPRP was tested. Which “shrunken log2 fold change” value did it give?
A: -0.012

Q: Which “shrunken log2 fold change” value does the source give for RRIRWRPPRLPRPRPRPMIRPRP here?
A: -0.348

Q: For RRIRFRPPRLPRPRPRPHISPRP, which “shrunken log2 fold change” value is on record?
A: -0.419

Q: For RRIRQRPPRLPRPRPRPIYFPRP, which “shrunken log2 fold change” value is on record?
A: -0.115

Q: RRIRKRPPRLPRPRPRPTKNPRP was tested. Which “shrunken log2 fold change” value did it give?
A: 0.392

Q: RRIRCRPPRLPRPRPRPENDPRP was tested. Which “shrunken log2 fold change” value did it give?
A: -0.0268

Q: For RRIRGRPPRLPRPRPRPYFDPRP, which “shrunken log2 fold change” value is on record?
A: -0.00956

Q: How did the “shrunken log2 fold change” value turn out when RRIRERPPRLPRPRPRPRTFPRP was run?
A: -0.0471

Q: With RRIRKRPPRLPRPRPRPCGMPRP as the sequence, how does the “shrunken log2 fold change” value read?
A: 0.858

Q: How did the “shrunken log2 fold change” value turn out when RRIRARPPRLPRPRPRPEWGPRP was run?
A: 1.06

Q: For RRIRPRPPRLPRPRPRPLDWPRP, which “shrunken log2 fold change” value is on record?
A: 0.349

Q: For RRIRTRPPRLPRPRPRPKPWPRP, which “shrunken log2 fold change” value is on record?
A: 0.363

Q: For RRIRYRPPRLPRPRPRPKEGPRP, which “shrunken log2 fold change” value is on record?
A: -0.186

Q: RRIRKRPPRLPRPRPRPDMMPRP was tested. Which “shrunken log2 fold change” value did it give?
A: 1.43

Q: RRIRIRPPRLPRPRPRPPDKPRP was tested. Which “shrunken log2 fold change” value did it give?
A: -0.0243

Q: Which “shrunken log2 fold change” value does the source give for RRIRARPPRLPRPRPRPREKPRP here?
A: 0.383

Q: With RRIRCRPPRLPRPRPRPDSGPRP as the sequence, how does the “shrunken log2 fold change” value read?
A: 0.0093

Q: For RRIRSRPPRLPRPRPRPECQPRP, which “shrunken log2 fold change” value is on record?
A: -0.00188

Q: With RRIRGRPPRLPRPRPRPFDTPRP as the sequence, how does the “shrunken log2 fold change” value read?
A: 0.151

Q: Which “shrunken log2 fold change” value does the source give for RRIRKRPPRLPRPRPRPIHPPRP here?
A: 0.0728

Q: RRIRQRPPRLPRPRPRPQQTPRP was tested. Which “shrunken log2 fold change” value did it give?
A: 0.178

Q: How did the “shrunken log2 fold change” value turn out when RRIRFRPPRLPRPRPRPIVVPRP was run?
A: -0.0214

Q: How did the “shrunken log2 fold change” value turn out when RRIRDRPPRLPRPRPRPPWLPRP was run?
A: 0.296

Q: Which “shrunken log2 fold change” value does the source give for RRIRSRPPRLPRPRPRPPEFPRP here?
A: -0.119

Q: RRIRMRPPRLPRPRPRPPRHPRP was tested. Which “shrunken log2 fold change” value did it give?
A: 0.955

Q: How did the “shrunken log2 fold change” value turn out when RRIRHRPPRLPRPRPRPSMNPRP was run?
A: -0.253

Q: With RRIRWRPPRLPRPRPRPFQVPRP as the sequence, how does the “shrunken log2 fold change” value read?
A: -0.19

Q: How did the “shrunken log2 fold change” value turn out when RRIRCRPPRLPRPRPRPHQTPRP was run?
A: -0.0284

Q: How did the “shrunken log2 fold change” value turn out when RRIRRRPPRLPRPRPRPCRLPRP was run?
A: 0.144

Q: With RRIRCRPPRLPRPRPRPLNHPRP as the sequence, how does the “shrunken log2 fold change” value read?
A: 0.519

Q: With RRIRARPPRLPRPRPRPEYGPRP as the sequence, how does the “shrunken log2 fold change” value read?
A: 0.11

Q: With RRIRMRPPRLPRPRPRPEAEPRP as the sequence, how does the “shrunken log2 fold change” value read?
A: 2.18

Q: For RRIRHRPPRLPRPRPRPFYCPRP, which “shrunken log2 fold change” value is on record?
A: -0.946

Q: With RRIRTRPPRLPRPRPRPHPQPRP as the sequence, how does the “shrunken log2 fold change” value read?
A: -0.116

Q: With RRIRYRPPRLPRPRPRPHTAPRP as the sequence, how does the “shrunken log2 fold change” value read?
A: -0.57

Q: For RRIRRRPPRLPRPRPRPSFRPRP, which “shrunken log2 fold change” value is on record?
A: -0.0185

Q: Which “shrunken log2 fold change” value does the source give for RRIRERPPRLPRPRPRPDSLPRP here?
A: -0.391

Q: Which “shrunken log2 fold change” value does the source give for RRIRSRPPRLPRPRPRPTTNPRP here?
A: 0.00407

Q: RRIRMRPPRLPRPRPRPNISPRP was tested. Which “shrunken log2 fold change” value did it give?
A: -0.29

Q: For RRIRNRPPRLPRPRPRPPHGPRP, which “shrunken log2 fold change” value is on record?
A: -0.0913

Q: Which “shrunken log2 fold change” value does the source give for RRIRARPPRLPRPRPRPWVQPRP here?
A: -0.0652

Q: For RRIRKRPPRLPRPRPRPVPKPRP, which “shrunken log2 fold change” value is on record?
A: 0.289

Q: With RRIRLRPPRLPRPRPRPNDLPRP as the sequence, how does the “shrunken log2 fold change” value read?
A: -0.00842

Q: With RRIRNRPPRLPRPRPRPPVIPRP as the sequence, how does the “shrunken log2 fold change” value read?
A: -0.00994

Q: For RRIRRRPPRLPRPRPRPAEAPRP, which “shrunken log2 fold change” value is on record?
A: 0.148

Q: With RRIRSRPPRLPRPRPRPDNKPRP as the sequence, how does the “shrunken log2 fold change” value read?
A: -0.256

Q: With RRIRVRPPRLPRPRPRPLYSPRP as the sequence, how does the “shrunken log2 fold change” value read?
A: -0.343
